From the supplement of paper PMC9112550, “Optimization of the antimicrobial peptide Bac7 by deep mutational scanning” (BMC Biology, 2022) come the findings set out here.

The subject of this data set is Escherichia coli TOP10. The experiment in a line: shrunken log2 fold change of peptide-encoding DNA abundance (4.5 h post-induction vs induction); higher = less antimicrobial activity (less host growth inhibition). The note with it: time post-induction: 4.5 h; library: site-saturation at positions 5, 18, 19, 20.
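Further: peptides expressed intracellularly from a pBAD plasmid library in pooled LB shake-flask culture, induced with 0.3% L-arabinose, DNA abundance read by NGS, three biological replicates, DESeq2 with apeglm shrinkage.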

Consider RRIRKRPPRLPRPRPRPGCRPRP, for which the “shrunken log2 fold change” value was 0.654.

Turning to RRIRIRPPRLPRPRPRPLQNPRP, the “shrunken log2 fold change” value was -0.359.

In the case of RRIRTRPPRLPRPRPRPIQGPRP, the “shrunken log2 fold change” value is -0.0537.

With RRIRLRPPRLPRPRPRPASFPRP, the “shrunken log2 fold change” value was -0.0339.

Take RRIRRRPPRLPRPRPRPSWSPRP: the “shrunken log2 fold change” value was -0.116.

For the sequence RRIRSRPPRLPRPRPRPWCLPRP, the “shrunken log2 fold change” value was -0.11.

For RRIRERPPRLPRPRPRPMWEPRP, the “shrunken log2 fold change” value is 0.169.

Take RRIRMRPPRLPRPRPRPCWCPRP: the “shrunken log2 fold change” value was -7.44e-05.

For RRIRSRPPRLPRPRPRPVIPPRP, the “shrunken log2 fold change” value is -0.156.

On to RRIRQRPPRLPRPRPRPPCHPRP, for which the “shrunken log2 fold change” value was 0.0591.

As for RRIRDRPPRLPRPRPRPDIYPRP, the “shrunken log2 fold change” value is 0.0286.

Turning to RRIRRRPPRLPRPRPRPSPLPRP, the “shrunken log2 fold change” value is 0.479.

Consider RRIRNRPPRLPRPRPRPYYCPRP, for which the “shrunken log2 fold change” value is -0.0454.

As to RRIRSRPPRLPRPRPRPYNPPRP, the “shrunken log2 fold change” value is -0.953.

RRIRLRPPRLPRPRPRPLRIPRP: the “shrunken log2 fold change” value was -0.031.

As to RRIRPRPPRLPRPRPRPHFIPRP, the “shrunken log2 fold change” value is -0.468.

Take RRIRARPPRLPRPRPRPIMVPRP: the “shrunken log2 fold change” value was -0.146.

As to RRIRFRPPRLPRPRPRPQDIPRP, the “shrunken log2 fold change” value is -0.0714.

Turning to RRIRCRPPRLPRPRPRPQRIPRP, the “shrunken log2 fold change” value came out at 0.0509.

As for RRIRERPPRLPRPRPRPPGIPRP, the “shrunken log2 fold change” value is -0.0106.

Regarding RRIRRRPPRLPRPRPRPYWVPRP, the “shrunken log2 fold change” value was found to be 0.0443.

Take RRIRTRPPRLPRPRPRPFNFPRP: the “shrunken log2 fold change” value was -0.617.

As to RRIRCRPPRLPRPRPRPPQVPRP, the “shrunken log2 fold change” value worked out at 0.204.

Take RRIRMRPPRLPRPRPRPRDCPRP: the “shrunken log2 fold change” value was found to be 0.288.

RRIRSRPPRLPRPRPRPKFVPRP: the “shrunken log2 fold change” value is -0.0276.

Regarding RRIRERPPRLPRPRPRPYITPRP, the “shrunken log2 fold change” value was -1.07.

RRIRRRPPRLPRPRPRPHGPPRP: the “shrunken log2 fold change” value turned out to be 0.267.

With RRIRFRPPRLPRPRPRPPYYPRP, the “shrunken log2 fold change” value is -0.464.

As to RRIRHRPPRLPRPRPRPDWQPRP, the “shrunken log2 fold change” value worked out at 0.00196.

As for RRIRARPPRLPRPRPRPDNNPRP, the “shrunken log2 fold change” value was -0.154.

As for RRIRFRPPRLPRPRPRPFMMPRP, the “shrunken log2 fold change” value was -0.693.

In the case of RRIRLRPPRLPRPRPRPEHAPRP, the “shrunken log2 fold change” value was -0.00513.

With RRIRYRPPRLPRPRPRPNWCPRP, the “shrunken log2 fold change” value was 0.01.

As for RRIRLRPPRLPRPRPRPWPSPRP, the “shrunken log2 fold change” value came out at 0.341.

RRIRGRPPRLPRPRPRPSEGPRP: the “shrunken log2 fold change” value is 0.356.

As for RRIRLRPPRLPRPRPRPTRLPRP, the “shrunken log2 fold change” value is 0.432.

Consider RRIRKRPPRLPRPRPRPEHAPRP, for which the “shrunken log2 fold change” value turned out to be 1.12.

Consider RRIRYRPPRLPRPRPRPITGPRP, for which the “shrunken log2 fold change” value was found to be 0.0176.

Regarding RRIRFRPPRLPRPRPRPMDPPRP, the “shrunken log2 fold change” value was 0.0482.

On to RRIRIRPPRLPRPRPRPFYYPRP, for which the “shrunken log2 fold change” value was -0.667.

For the sequence RRIRSRPPRLPRPRPRPEIKPRP, the “shrunken log2 fold change” value was determined as 0.104.

On to RRIRQRPPRLPRPRPRPRHQPRP, for which the “shrunken log2 fold change” value is -0.00749.

Consider RRIRKRPPRLPRPRPRPCSYPRP, for which the “shrunken log2 fold change” value was -0.0348.

As to RRIRHRPPRLPRPRPRPDDKPRP, the “shrunken log2 fold change” value was -0.359.

With RRIRRRPPRLPRPRPRPPEWPRP, the “shrunken log2 fold change” value is 0.539.

Consider RRIRKRPPRLPRPRPRPHLWPRP, for which the “shrunken log2 fold change” value turned out to be 0.709.

With RRIRERPPRLPRPRPRPPKDPRP, the “shrunken log2 fold change” value is 0.00712.

RRIRQRPPRLPRPRPRPFWVPRP: the “shrunken log2 fold change” value was 0.176.

Consider RRIRDRPPRLPRPRPRPWDIPRP, for which the “shrunken log2 fold change” value is -0.0043.

Turning to RRIRNRPPRLPRPRPRPTSVPRP, the “shrunken log2 fold change” value was found to be 0.184.

Regarding RRIRYRPPRLPRPRPRPGWAPRP, the “shrunken log2 fold change” value was found to be 0.0172.

On to RRIRERPPRLPRPRPRPFTSPRP, for which the “shrunken log2 fold change” value was -0.209.

Take RRIRTRPPRLPRPRPRPWWHPRP: the “shrunken log2 fold change” value is -0.279.

In the case of RRIRARPPRLPRPRPRPKQNPRP, the “shrunken log2 fold change” value is 0.481.

On to RRIRTRPPRLPRPRPRPMGWPRP, for which the “shrunken log2 fold change” value came to 0.293.

On to RRIRNRPPRLPRPRPRPKIIPRP, for which the “shrunken log2 fold change” value is -0.118.

For RRIRHRPPRLPRPRPRPTGMPRP, the “shrunken log2 fold change” value was 0.156.

For RRIRRRPPRLPRPRPRPTDTPRP, the “shrunken log2 fold change” value is -0.11.

Consider RRIRYRPPRLPRPRPRPANTPRP, for which the “shrunken log2 fold change” value was -0.589.

For the sequence RRIRARPPRLPRPRPRPYQKPRP, the “shrunken log2 fold change” value is -0.0277.

In the case of RRIRHRPPRLPRPRPRPDYQPRP, the “shrunken log2 fold change” value was -0.0951.

Consider RRIRLRPPRLPRPRPRPTWMPRP, for which the “shrunken log2 fold change” value was -0.0614.

As to RRIRQRPPRLPRPRPRPGCQPRP, the “shrunken log2 fold change” value was -0.103.

RRIRNRPPRLPRPRPRPGVPPRP: the “shrunken log2 fold change” value was found to be 0.457.

As for RRIRVRPPRLPRPRPRPGYIPRP, the “shrunken log2 fold change” value was -0.608.

For the sequence RRIRQRPPRLPRPRPRPKGDPRP, the “shrunken log2 fold change” value was 0.00911.

In the case of RRIRFRPPRLPRPRPRPAQWPRP, the “shrunken log2 fold change” value was found to be 0.296.

Take RRIRQRPPRLPRPRPRPDDTPRP: the “shrunken log2 fold change” value was 0.00151.

Consider RRIRDRPPRLPRPRPRPCCPPRP, for which the “shrunken log2 fold change” value was -0.449.

On to RRIRRRPPRLPRPRPRPNIFPRP, for which the “shrunken log2 fold change” value was -0.0516.

As for RRIRKRPPRLPRPRPRPYIRPRP, the “shrunken log2 fold change” value was -0.018.

Turning to RRIRLRPPRLPRPRPRPMSYPRP, the “shrunken log2 fold change” value was -0.25.

For the sequence RRIRSRPPRLPRPRPRPRKDPRP, the “shrunken log2 fold change” value worked out at 0.271.

Consider RRIRGRPPRLPRPRPRPDNTPRP, for which the “shrunken log2 fold change” value stood at 0.204.

With RRIRLRPPRLPRPRPRPLESPRP, the “shrunken log2 fold change” value is -0.212.

With RRIRMRPPRLPRPRPRPDSHPRP, the “shrunken log2 fold change” value is -0.025.

Turning to RRIRDRPPRLPRPRPRPISEPRP, the “shrunken log2 fold change” value is -0.0429.

Turning to RRIRERPPRLPRPRPRPYDKPRP, the “shrunken log2 fold change” value was -1.41.

Take RRIRSRPPRLPRPRPRPQVSPRP: the “shrunken log2 fold change” value is -0.236.

In the case of RRIRGRPPRLPRPRPRPSTYPRP, the “shrunken log2 fold change” value is -0.189.

As for RRIRRRPPRLPRPRPRPHPFPRP, the “shrunken log2 fold change” value was found to be 0.116.

As for RRIRIRPPRLPRPRPRPNNEPRP, the “shrunken log2 fold change” value is -0.597.

With RRIRLRPPRLPRPRPRPDVYPRP, the “shrunken log2 fold change” value is -0.0227.

As for RRIRPRPPRLPRPRPRPLMPPRP, the “shrunken log2 fold change” value is -0.188.

Regarding RRIRARPPRLPRPRPRPDWNPRP, the “shrunken log2 fold change” value came out at 0.0789.

Take RRIRQRPPRLPRPRPRPFDCPRP: the “shrunken log2 fold change” value is -0.408.

Consider RRIRGRPPRLPRPRPRPILKPRP, for which the “shrunken log2 fold change” value stood at 0.316.

For RRIRHRPPRLPRPRPRPIDTPRP, the “shrunken log2 fold change” value was -0.291.

For RRIRMRPPRLPRPRPRPIRLPRP, the “shrunken log2 fold change” value was 0.0373.

RRIRARPPRLPRPRPRPVIFPRP: the “shrunken log2 fold change” value was determined as 0.0535.

Turning to RRIRCRPPRLPRPRPRPHFCPRP, the “shrunken log2 fold change” value is -0.649.
